{
  "source": "patent US20180000755A1",
  "about": "(UNIVERSITY OF TOKYO, published 2018)",
  "biological_target": "T1, fragment consisting of the region of the 500th to 656th amino acids of FROUNT protein (Homo sapiens (Human), UniProt Q9BW27 500-656)",
  "T1 construct": "Fragment used in the NMR analysis; No tag is mentioned; also called FROUNT C-terminal fragment",
  "T1 sequence": "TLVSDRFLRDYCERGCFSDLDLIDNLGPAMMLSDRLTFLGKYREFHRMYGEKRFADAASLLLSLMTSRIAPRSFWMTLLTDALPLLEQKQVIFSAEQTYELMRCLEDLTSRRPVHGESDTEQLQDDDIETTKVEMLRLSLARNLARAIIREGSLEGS",
  "assay": "NMR chemical shift perturbation",
  "data": [
    {"binder": "EKFRRYLSVFFRKHIT (Peptide used in the NMR analysis; No biotinylation is mentioned)", "note": "[CCR2 pro-C region fragment of 16 residues (SEQ ID NO:3)]", "values": [
      {"measurement": "binding result", "result": "binds"}
    ]}
  ]
}
